From US20240116985A1 (published 2024)
Starred links: 1 amine or outer side, 2 acyl side, 3 side chain; linkers in the order of their positions; H or OH if unused. Positions of bridges follow the written chain, without caps; N, C: chain ends. Non-standard residues stand in square brackets, D forms with d. Primed or numbered codes have the meaning given here. PyrS2″ = (S)-3-amino-1-((pent-4-en-1-yloxy)carbonyl)pyrrolidine-3-carboxylic acid (stapling residue), C=CCCCOC(=O)N1CC[C@@](N[*:1])(C(=O)[*:2])C1; B5(32) = 2-amino-2-(pent-4-en-1-yl)hept-6-enoic acid (bis-4-pentenylglycine, two alkene side chains), C=CCCCC(CCCC=C)(N[*:1])C(=O)[*:2]; B5(4) = 2,2-bis(4-pentenyl)glycine = 2-amino-2-(pent-4-en-1-yl)hept-6-enoic acid (stitching residue), C=CCCCC(CCCC=C)(N[*:1])C(=O)[*:2]; TfeGA = (S)-2-amino-3-((carboxymethyl)(2,2,2-trifluoroethyl)amino)propanoic acid, O=C([C@H](CN(CC(=O)[*:3])CC(F)(F)F)N[*:1])[*:2]; PyrS2 = (S)-3-amino-1-((pent-4-en-1-yloxy)carbonyl)pyrrolidine-3-carboxylic acid, C=CCCCOC(=O)N1CC[C@@](N[*:1])(C(=O)[*:2])C1; B5(3) = 2,2-bis(4-pentenyl)glycine (stitching residue), C=CCCCC(CCCC=C)(N[*:1])C(=O)[*:2]; AcLys″ = N6-acetyl-lysine, CC(=O)NCCCC[C@H](N[*:1])C(=O)[*:2]; Phe(3-COOH) = N[C@@H](Cc1cccc(C(=O)O)c1)C(=O)O; 2F3MeF = Cc1cccc(C[C@H](N[*:1])C(=O)[*:2])c1F; Met(O2) = CS(=O)(=O)CC[C@H](N)C(=O)O; Bta = N[C@@H](Cc1csc2ccccc12)C(=O)O; Lys(iPr) = CC(C)NCCCC[C@H](N)C(=O)O; αAllylPro = C=CC[C@@]1(C(=O)O)CCCN1; tBuAla = CC(C)(C)C[C@H](N)C(=O)O; 3Thi = N[C@@H](Cc1ccsc1)C(=O)O; PyrS2(4) = not defined here; TfeGA″ = not defined here

Assays:
Assay in all cases: cell-based or functional assay
[1] = target: T1, beta-catenin in DLD1 TCF/LEF luciferase reporter cells (UniProt P35222 2-781)
T1 sequence (looked up): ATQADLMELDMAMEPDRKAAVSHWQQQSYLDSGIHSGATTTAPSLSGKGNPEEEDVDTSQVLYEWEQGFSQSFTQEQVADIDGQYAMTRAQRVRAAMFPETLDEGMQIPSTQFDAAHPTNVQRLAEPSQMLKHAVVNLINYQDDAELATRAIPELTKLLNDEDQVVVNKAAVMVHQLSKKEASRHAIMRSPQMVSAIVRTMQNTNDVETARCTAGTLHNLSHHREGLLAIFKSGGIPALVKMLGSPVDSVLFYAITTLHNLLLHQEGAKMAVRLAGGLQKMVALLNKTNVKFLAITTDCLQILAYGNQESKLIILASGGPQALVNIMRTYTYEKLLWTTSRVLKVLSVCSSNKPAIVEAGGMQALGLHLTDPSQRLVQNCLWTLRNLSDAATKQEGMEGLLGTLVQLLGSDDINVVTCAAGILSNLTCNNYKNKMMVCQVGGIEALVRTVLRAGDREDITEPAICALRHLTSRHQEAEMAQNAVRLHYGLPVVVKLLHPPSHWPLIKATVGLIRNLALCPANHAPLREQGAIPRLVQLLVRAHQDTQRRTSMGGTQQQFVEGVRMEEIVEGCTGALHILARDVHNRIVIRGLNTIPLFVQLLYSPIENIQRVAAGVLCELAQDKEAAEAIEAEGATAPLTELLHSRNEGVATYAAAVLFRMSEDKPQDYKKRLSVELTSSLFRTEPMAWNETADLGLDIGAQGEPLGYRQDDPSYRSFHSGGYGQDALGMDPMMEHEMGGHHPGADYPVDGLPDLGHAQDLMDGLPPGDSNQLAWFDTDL

[2] = target: T2, B-cat-Halo (beta-catenin HaloTag construct expressed in HEK293 cells) (UniProt P35222 1-781)
T2 sequence (looked up): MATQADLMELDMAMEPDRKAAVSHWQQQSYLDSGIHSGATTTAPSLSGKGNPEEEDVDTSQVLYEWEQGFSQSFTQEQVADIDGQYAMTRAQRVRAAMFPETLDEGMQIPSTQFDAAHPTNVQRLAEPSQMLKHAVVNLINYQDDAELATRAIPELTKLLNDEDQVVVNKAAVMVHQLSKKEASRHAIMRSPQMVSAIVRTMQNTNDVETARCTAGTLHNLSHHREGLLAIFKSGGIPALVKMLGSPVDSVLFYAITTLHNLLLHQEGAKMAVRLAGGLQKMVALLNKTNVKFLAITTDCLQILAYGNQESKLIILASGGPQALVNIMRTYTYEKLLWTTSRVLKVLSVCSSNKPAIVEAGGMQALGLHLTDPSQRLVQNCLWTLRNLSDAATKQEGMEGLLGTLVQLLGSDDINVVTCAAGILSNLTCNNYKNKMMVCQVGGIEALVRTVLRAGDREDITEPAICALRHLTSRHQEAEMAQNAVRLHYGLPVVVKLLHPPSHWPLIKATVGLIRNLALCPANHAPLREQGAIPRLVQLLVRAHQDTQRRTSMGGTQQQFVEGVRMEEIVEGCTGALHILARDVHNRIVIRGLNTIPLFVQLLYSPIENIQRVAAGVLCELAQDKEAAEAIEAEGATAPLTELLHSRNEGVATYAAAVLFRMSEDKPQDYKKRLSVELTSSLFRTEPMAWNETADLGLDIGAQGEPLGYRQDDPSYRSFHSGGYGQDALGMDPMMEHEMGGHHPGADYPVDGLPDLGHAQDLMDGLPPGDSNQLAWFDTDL

[3] = target: T3, B-cat-Halo (UniProt P35222 1-781)
T3 sequence (looked up): T2 sequence (looked up)

[4] = target: T4, beta-catenin in DLD1 TCF/LEF luciferase reporter cells (UniProt P35222 1-781)
T4 sequence (looked up): T2 sequence (looked up)

[5] = target: T5, beta-catenin in DLD1 TCF/LEF luciferase reporter cells (UniProt P35222 2-781); remark: listed apart in the source
T5 sequence (looked up): T1 sequence (looked up)

[6] = target: T6, B-cat-Halo (UniProt P35222 1-781); remark: listed apart in the source
T6 sequence (looked up): T2 sequence (looked up)

[7] = target: T7, beta-catenin in DLD1 TCF/LEF luciferase reporter cells (UniProt P35222 1-781); remark: listed apart in the source
T7 sequence (looked up): T2 sequence (looked up)

[8] = target: T8, B-cat-Halo (UniProt P35222 1-781); remark: listed apart in the source
T8 sequence (looked up): T2 sequence (looked up)

[9] = target: T9, B-cat-Halo (Homo sapiens (Human), UniProt P35222 1-781)
T9 sequence: T2 sequence (looked up)

[10] = target: T10, beta-catenin in DLD1 TCF/LEF luciferase reporter cells (Homo sapiens (Human), UniProt P35222 1-781)
T10 sequence: T2 sequence (looked up)

B1: I-2061 (peptide)
peptide: Ac-[αAllylPro]D[tBuAla][B5(4)]D[Phe(3-COOH)]AAFL[PyrS2(4)][3Thi][Bta][Met(O2)]-NH2
modifications: staple 1-4, 4-11; reading uncertain; also: printed as Ac-PL3-Asp-Npg-B5-Asp-3COOHF-Ala-Ala-Phe-Leu-PyrS2-3Thi-BztA-Met2O-NH2
- DLD1 4% Abs IC50 [1]: 1800 nM
- NanoBRET Abs IC50 [2]: 1900 nM

Binder: Ac-[αAllylPro]D[tBuAla][B5(32)]D[Phe(3-COOH)]AAFL[PyrS2][3Thi][Bta]NLLL-NH2 (staple 1-4, 4-11; also: later eluting staple isomer (HPLC peak)) [I-2276]
- NanoBRET Abs IC50 [3]: 4000 nM
- DLD1 4% Abs IC50 [4]: 3900 nM

Binder: Ac-[αAllylPro]D[tBuAla][B5(4)]D[Phe(3-COOH)]AAFL[PyrS2][3Thi][Bta]NLLLLL-NH2 (staple 1-4, 4-11; also: later eluting staple isomer) [I-2280]
- NanoBRET Abs IC50 [3]: > 20000 nM
- DLD1 4% Abs IC50 [4]: > 20000 nM

B2: I-1616 (peptide)
peptide: Ac-[αAllylPro]D[tBuAla][B5(3)]D[Phe(3-COOH)]AAFL[PyrS2(4)][2F3MeF][Bta][Lys(iPr)]-NH2
modifications: staple 1-4, 4-11; not fully specified; printed as Ac-PL3-Asp-Npg-B5-Asp-3COOHF-Ala-Ala-Phe-Leu-PyrS2-2F3MeF-BztA-iPrLys-NH2; reading uncertain
- DLD1 4% Abs IC50 [5]: 2800 nM
- NanoBRET Abs IC50 [6]: 4500 nM

Binder: Ac-[αAllylPro]D[tBuAla][B5(3)]D[(Tfb)GA]AAFL[PyrS2″][3Thi][Bta]Q-NH2 (staple 1-4, 4-11) [I-1629]
- DLD1 4% Abs IC50 [5]: 2700 nM
- NanoBRET Abs IC50 [6]: 4300 nM

Binder: Ac-[αAllylPro]D[tBuAla][B5(3)]D[(Pfbn)GA]AAFL[PyrS2″][3Thi][Bta]Q-NH2 (staple 1-4, 4-11) [I-1632]
- DLD1 4% Abs IC50 [5]: 2600 nM
- NanoBRET Abs IC50 [6]: 6500 nM

Binder: Ac-[αAllylPro]D[tBuAla][B5(4)]D[TfeGA″]AAFL[PyrS2″][3Thi][Bta]T-NH2 (staple 1-4, 4-11; reading uncertain) [I-1706]
- DLD1 4% Abs IC50 [7]: 2700 nM
- NanoBRET Abs IC50 [8]: 4800 nM

Binder: Ac-[αAllylPro]D[tBuAla][B5(4)]D[TfeGA]AAFL[PyrS2″][3Thi][Bta][AcLys″]-NH2 (staple 1-4, 4-11) [I-1709]
- DLD1 4% Abs IC50 [7]: 3900 nM
- NanoBRET Abs IC50 [8]: 6200 nM

Binder: Ac-[αAllylPro]D[tBuAla][B5(4)]D[TfeGA]AAFL[PyrS2″][3Thi][Bta]A-NH2 (staple 1-4, 4-11) [I-1710]
- DLD1 4% Abs IC50 [7]: 1900 nM
- NanoBRET Abs IC50 [8]: 3900 nM

Binder: Ac-[αAllylPro]D[tBuAla][B5(3)]D[Phe(3-COOH)]AAFL[PyrS2″][3Thi][Bta]N-NH2 (staple 1-4, 4-11) [I-2043]
- NanoBRET Abs IC50 [9]: 2800 nM
- DLD1 4% Abs IC50 [10]: 1000 nM

Binder: Ac-[αAllylPro]D[tBuAla][B5(3)]D[Phe(3-COOH)]AAFL[PyrS2(4)][3Thi][Bta]NAA[dA]-NH2 (staple 1-4, 4-11; reading uncertain) [I-2047]
- NanoBRET Abs IC50 [9]: 2600 nM
- DLD1 4% Abs IC50 [10]: 1300 nM
